Measurements: patent US20240209099A1 (SUZHOU TRANSCENTA THERAPEUTICS, published 2024)
Substitutions are numbered along the chain they refer to.

T1: Recombinant Rhesus macaque VEGFR2/KDR Protein, His tag (rhesus macaque)
T1 construct: Expressed in HEK293, bought from ACRO Biosystems; also called rhesus VEGFR2-his; rhesus VEGFR2
T1 chain: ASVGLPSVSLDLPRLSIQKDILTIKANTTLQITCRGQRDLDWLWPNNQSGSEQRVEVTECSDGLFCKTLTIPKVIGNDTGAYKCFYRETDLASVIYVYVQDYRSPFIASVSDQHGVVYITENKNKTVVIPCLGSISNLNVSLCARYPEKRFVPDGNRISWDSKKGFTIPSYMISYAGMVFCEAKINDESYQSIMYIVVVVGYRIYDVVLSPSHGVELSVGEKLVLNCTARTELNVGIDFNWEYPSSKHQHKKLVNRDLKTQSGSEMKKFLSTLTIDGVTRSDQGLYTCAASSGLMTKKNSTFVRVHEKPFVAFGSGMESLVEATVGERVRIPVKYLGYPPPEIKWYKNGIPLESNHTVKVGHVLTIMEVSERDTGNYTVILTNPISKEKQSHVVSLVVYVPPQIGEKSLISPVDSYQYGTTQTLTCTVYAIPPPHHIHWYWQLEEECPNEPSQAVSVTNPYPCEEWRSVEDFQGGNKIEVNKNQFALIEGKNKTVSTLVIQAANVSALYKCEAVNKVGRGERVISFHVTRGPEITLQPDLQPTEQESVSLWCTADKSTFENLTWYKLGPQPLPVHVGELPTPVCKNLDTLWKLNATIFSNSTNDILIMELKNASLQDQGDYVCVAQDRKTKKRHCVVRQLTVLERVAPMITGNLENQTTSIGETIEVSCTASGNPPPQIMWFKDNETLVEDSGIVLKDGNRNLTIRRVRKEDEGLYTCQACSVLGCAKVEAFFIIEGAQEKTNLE

B1: 002 (mouse hybridoma antibody) (antibody, V domains shown)
VH: QVQLQQSGPELVKPGASVKISCKASGYAFSSSWMNWVKQRPGEGLEWIGRIFPGDGDTYYNGKFQVKATLTADKSSSTAYMQLSSLTSEDSAVYFCAIFLDTSGRYVDYWGQGTTLTISS
VL: DIVMTQSHKFMSTSVGDRVSITCKASQDVNTAVAWYQQKPGQSPKLLIYSASYRYIGVPDRFTGSGSGTDFTFTISSVQSEDLTVYYCQQHYRAPLTFGSGTKLELK
notes: Mouse antibody purified from hybridoma; also called mAb002; 11B8
B2: 042 (mouse hybridoma antibody) (antibody, V domains shown)
VH: EVQLVESGGDLVKPGGSLKLSCTASGFSFSIYGMSWVRQTPDKRLEWVASISVGGSYTYYADSVEGRFTISRENAKNTLYLQMNSLKSEDTALYYCARELDGNYDYWGQGTSLTVSS
VL: DIVITQNELSNPVTFGESVSISCRSSKSLLYKDGKTYLNWFLQRPGQSPQLLIYLMSTRASGVSDRFSGSGSGTDFTLEISRVKAEDVGVYYCQQLVEYPFTFGSGTKLEIK
notes: Mouse antibody purified from hybridoma; also called mAb042; 8G11G1B2C6
B3: 018 (mouse hybridoma antibody) (antibody, V domains shown)
VH: EVKLVESGGGLVQPGGSLSLSCAVSGFTFTDYYMSWVRQPPGKALEWLGFIRNKANGYTTEYSASVKGRFTISRDNSQSILYLQMNALRAEDSATYYCARFDYYGSTYCFDYWGQGTTLTVSS
VL: DIVLTQSPASLAVSLGQRATISCRASQSVSTSSSSFMHWYQQKPGQPPKLLIKYASNLESGVPARFSGSGSGTDFTLNIHPVEEEDTATYYCQHTWEIPLTFGAGTKLELK
notes: Mouse antibody purified from hybridoma; also called mAb018; 16D9G2E8
B4: 003 (mouse hybridoma antibody) (antibody, V domains shown)
VH: QVQLQQPGAELVKPGASVKMSCKASGYTFNTYWIMWVKQRPGQGLEWIGDIYPGTGSTNYNEKFKSKVTLTADTSSTTAYMQVSSLTSEDSAVYYCGRDSNPDYWGQGTTLTVSS
VL: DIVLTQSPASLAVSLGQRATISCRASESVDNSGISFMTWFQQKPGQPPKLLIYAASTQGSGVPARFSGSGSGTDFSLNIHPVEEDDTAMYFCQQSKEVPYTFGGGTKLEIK
notes: Mouse antibody purified from hybridoma; also called mAb003; 21B4
B5: 006 (mouse hybridoma antibody) (antibody, V domains shown)
VH: B4 VH with V2A, A16T, T31S, R40S, T55S, A72V, T77S, G97A
VL: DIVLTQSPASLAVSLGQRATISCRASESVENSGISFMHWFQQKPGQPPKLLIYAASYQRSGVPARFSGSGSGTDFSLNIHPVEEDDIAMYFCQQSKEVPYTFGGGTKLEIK
notes: Mouse antibody purified from hybridoma; also called mAb006; 27E8A9D5
B6: 002C (chimeric 002) (antibody, V domains shown)
VH: B1 VH
VL: B1 VL
notes: Mouse variable regions cloned into expression vector pCP-Hck/Hcg1 (human constant regions; detected with anti-human Fc)
B7: 54-H1L1 (humanized Mab54) (antibody, human IgG1, V domains shown)
VH: EVQLVESGGGLVKPGGSLKLSCAASGFTFSMYGMSWVRQTPGKRLEWVASISIGGSYTYYADSVKGRFTISRDNAKNTLYLQMNSLKAEDTAVYYCARELDGNYDYWGQGTTLTVSS
VL: B2 VL with N7D, N11L, E79K, K84E, V90I
notes: also called humanized 54 variant H1L1
B8: 54-H1L2 (humanized Mab54) (antibody, human IgG1, V domains shown)
VH: B7 VH
VL: B2 VL with N7T, E8P, N11L, F15P, S64P, E79K, K84E
notes: also called humanized 54 variant H1L2
B9: 54-H2L2 (humanized Mab54) (antibody, human IgG1, V domains shown)
VH: B7 VH with K19R, T40A, K87R
VL: B2 VL with N7T, E8P, N11L, F15P, S64P, E79K, K84E
notes: also called humanized 54 variant H2L2
B10: 48-H3L2 (antibody, V domains shown)
VH: B7 VH with K19R, T40A, K87R, L100M, Q109H
VL: B2 VL with N7T, E8P, N11L, F15P, S64P, E79K, K84E
notes: also called humanized Mab48 variant H3L2

biological target: T2, human VEGFR2 on HUVEC cells (human, UniProt P35968 20-1356); experiment: flow cytometry on HUVEC cells, percent shifted cells (Shift%), anti-mouse IgG-PE
T2 construct: also called hVEGFR2 on HUVEC
Procedure: Log phase HUVEC cells were collected, counted and resuspended in FACS buffer (5% BSA+PBS). 2×10∧5 cells were added to each tube and then washed once with PBS (1500 rpm, 5 mins, RT). Then […] serial diluted VEGFR2 antibodies purified from hybridoma supernatant in FACS buffer were added into corresponding tubes and were incubated at 4° C. for 1 hr. The cells were then washed twice with 1 ml PBS, followed by adding 100 μl/tube of 2nd antibody (1:400 anti-mIgG (H+L)-PE, Cell signaling #8887) in FACS buffer. The cells were incubated at 4° C. for 0.5 hr and then washed twice with PBS, followed by resuspending cells in 600 μl PBS for each sample. The cells were then transferred into FACS tube and the bindings of the antibodies to the cells were detected using flow cytometry (BD Accuri C6) (see FIG. 3).
The percentage of positive binding cells was calculated and fit by Graphpad Prism Software.
Target sequence in this assay (P35968 20-1356 V297I/Q472H limits assumed): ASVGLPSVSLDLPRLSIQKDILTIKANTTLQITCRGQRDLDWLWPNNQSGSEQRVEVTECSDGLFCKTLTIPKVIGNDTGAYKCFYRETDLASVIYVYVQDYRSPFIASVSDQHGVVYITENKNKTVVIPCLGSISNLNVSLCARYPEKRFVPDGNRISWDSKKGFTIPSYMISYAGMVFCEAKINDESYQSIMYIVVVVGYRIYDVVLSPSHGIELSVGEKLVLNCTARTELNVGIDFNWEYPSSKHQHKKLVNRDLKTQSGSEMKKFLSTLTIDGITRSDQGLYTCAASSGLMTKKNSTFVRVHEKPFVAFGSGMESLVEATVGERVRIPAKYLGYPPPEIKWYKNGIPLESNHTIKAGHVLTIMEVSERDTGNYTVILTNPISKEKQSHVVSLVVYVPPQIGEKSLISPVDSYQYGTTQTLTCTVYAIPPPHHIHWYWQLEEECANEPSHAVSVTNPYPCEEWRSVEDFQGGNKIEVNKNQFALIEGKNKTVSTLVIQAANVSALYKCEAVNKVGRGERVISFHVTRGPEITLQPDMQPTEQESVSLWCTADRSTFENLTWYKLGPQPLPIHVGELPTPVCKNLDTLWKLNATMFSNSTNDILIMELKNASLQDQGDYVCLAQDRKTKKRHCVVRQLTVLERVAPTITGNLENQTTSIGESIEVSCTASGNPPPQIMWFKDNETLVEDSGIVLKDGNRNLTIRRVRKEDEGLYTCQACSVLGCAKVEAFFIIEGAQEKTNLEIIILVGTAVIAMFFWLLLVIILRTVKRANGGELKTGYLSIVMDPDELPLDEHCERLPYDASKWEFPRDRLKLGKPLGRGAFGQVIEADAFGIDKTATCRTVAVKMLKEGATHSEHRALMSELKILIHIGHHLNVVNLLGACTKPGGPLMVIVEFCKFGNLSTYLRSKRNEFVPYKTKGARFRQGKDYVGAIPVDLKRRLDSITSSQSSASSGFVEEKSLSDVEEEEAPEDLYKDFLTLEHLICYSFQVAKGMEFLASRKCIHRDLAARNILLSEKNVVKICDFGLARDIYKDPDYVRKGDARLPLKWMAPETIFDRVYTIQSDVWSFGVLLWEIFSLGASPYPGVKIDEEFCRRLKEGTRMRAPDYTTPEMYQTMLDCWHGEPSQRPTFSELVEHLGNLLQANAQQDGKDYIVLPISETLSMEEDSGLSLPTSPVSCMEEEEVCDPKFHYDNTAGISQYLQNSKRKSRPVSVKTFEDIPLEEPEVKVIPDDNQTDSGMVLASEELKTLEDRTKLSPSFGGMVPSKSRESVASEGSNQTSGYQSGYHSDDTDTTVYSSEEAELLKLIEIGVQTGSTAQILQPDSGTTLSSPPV

EC50 [µg/mL] | Binder
0.0462 | B1
0.052 | B2

biological target: T3, Recombinant Human VEGFR2/KDR Protein, His tag (hVEGFR2-his) (human, UniProt P35968 20-764); experiment: ELISA, hVEGFR2-his coated
T3 construct: Expressed in HEK293, bought from ACRO Biosystems; also called human VEGFR2-his; Human VEGFR2/KDR-His
Procedure: (§1) Same protocol of Example 2 antibody screening by ELISA assay. Briefly, 0.5 μg/ml hVEGFR2-his was coated and serially diluted purified antibodies would bind to coated antigen. Using HRP conjugated goat anti-mouse Fc antibody could detect binding signals of each antibody.
The hybridoma antibodies have similar affinity to human.
Target sequence in this assay (P35968 other isoform, or with tags, fused parts or gaps): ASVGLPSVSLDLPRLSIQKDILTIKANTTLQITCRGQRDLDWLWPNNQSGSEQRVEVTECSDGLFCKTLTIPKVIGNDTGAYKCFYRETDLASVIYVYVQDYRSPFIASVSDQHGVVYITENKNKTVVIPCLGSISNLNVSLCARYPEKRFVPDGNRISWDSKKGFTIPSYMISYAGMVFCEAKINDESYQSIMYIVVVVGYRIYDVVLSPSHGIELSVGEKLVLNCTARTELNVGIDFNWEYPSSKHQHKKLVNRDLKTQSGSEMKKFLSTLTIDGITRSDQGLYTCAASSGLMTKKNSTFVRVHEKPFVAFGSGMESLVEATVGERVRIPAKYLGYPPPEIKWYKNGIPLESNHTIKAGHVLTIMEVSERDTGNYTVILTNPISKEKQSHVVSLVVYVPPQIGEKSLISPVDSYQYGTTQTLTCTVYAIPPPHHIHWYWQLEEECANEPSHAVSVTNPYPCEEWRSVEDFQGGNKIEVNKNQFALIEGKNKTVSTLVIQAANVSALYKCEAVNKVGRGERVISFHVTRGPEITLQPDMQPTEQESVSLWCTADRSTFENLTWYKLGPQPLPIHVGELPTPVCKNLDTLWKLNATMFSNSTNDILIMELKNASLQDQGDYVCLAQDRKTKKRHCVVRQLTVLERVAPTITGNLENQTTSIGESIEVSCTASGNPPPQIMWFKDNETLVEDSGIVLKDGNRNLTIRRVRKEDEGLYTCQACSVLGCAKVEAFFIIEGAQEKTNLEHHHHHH

EC50 [µg/mL] | Binder
0.0168 | B1
0.0224 | B2
0.0129 | B3
0.00769 | B4
0.0135 | B5

biological target: T3, Recombinant Human VEGFR2/KDR Protein, …; experiment: ELISA, hVEGFR2-his coated (0.5 ug/ml), anti-human Fc-HRP
Procedure: as §1
(§2) Same protocol of Example 4 except using HRP conjugated goat anti-human Fc antibody as secondary antibody. Binding to hVEGFR2-his and rhesus VEGFR2-his (Acrobiosystems, Cat #VE2-C52H3) were also analyzed head-to-head.

EC50 [µg/mL] | Binder
0.0308 | B6

biological target: T3, Recombinant Human VEGFR2/KDR Protein, …; experiment: competition ELISA: VEGF-A coated (0.25 ug/ml), antibody mixed with VEGFR2, detection with mouse anti-VEGFR2 serum and anti-mouse Fc-HRP; blocked ligand VEGF-A
Procedure: For this assay, 0.25 μg/ml VEGF-A was coated on ELISA plate before a mixture of chimeric antibodies and VEGFR2 were added. To detect free VEGF-A (not bind to VEGFR2), 1:1000 diluted mouse serum (mouse previous immunized with human VEGFR2) were added and HRP conjugated goat anti-mouse Fc antibody was used as secondary antibody.

IC50 [µg/mL] | Binder
2.11 | B6

biological target: T3, Recombinant Human VEGFR2/KDR Protein, …; experiment: competition ELISA on coated hVEGFR2-his: hybridoma antibody titrated against 100 ng/ml chimeric 002C, anti-human IgG Fc-HRP
Target sequence in this assay (P35968 other isoform, or with tags, fused parts or gaps): as above

IC50 (read off the curve) [µg/mL] | Binder
~0.2 | B1
~0.1 | B2

biological target: T3, Recombinant Human VEGFR2/KDR Protein, …; experiment: SPR (Biacore), antibody captured by anti-Fc, antigen 2.5-80 nM
Procedure: A CM5 sensor chip was activated in each flow cell by 7-min injection (10 μl/min) of freshly prepared 1:1 50 mM N-hydroxysuccinimide (NHS): 200 mM 1-ethyl-3-(3-dimethylaminopropyl)-carbodiimide (EDC). Then anti-human Fc antibody (GE Healthcare) in a concentration of 10 μg/ml in 10 mM sodium acetate buffer PH 5.0 was injected onto the activated chip at 10 μl/min (HBS-EP running buffer: 10 mM HEPES, 150 mM NaCl, 3.4 mM EDTA, 0.005% surfactant P20, pH 7.4). The remaining active coupling sites were blocked by 7 min injection of 1M ethanolamine at 10 μl/min. The immobilization level of each flow cell is ˜9000RU. Antibodies were captured in FC2 by anti-human Fc IgG or anti-mouse Fc (GE Healthcare) to 200˜300RU. FC1 was used as the reference cell. Antigen was injected at varying concentrations (2.5 nM, 5 nM, 10 nM, 20 nM, 40 nM and 80 nM) after capture of antibody. The association time for antibody binding antigen is 180s. Surface Regeneration condition is 120s at 10 μl/min in Gly pH1.5. The signals with captured antibody subtracted from those without captured antibody were calculated with Biacore X100 evaluation software ver. 2.0 (Biacore).
Target sequence in this assay (P35968 other isoform, or with tags, fused parts or gaps): as above

Kd [nM] | koff [s⁻¹] | kon [M⁻¹ s⁻¹] | Binder
5.98 | 0.000336 | 56200 | B1
0.573 | 4.88e-05 | 85100 | B2
1.14 | 5.15e-05 | 45100 | B7
3.68 | 0.000139 | 37700 | B8
4.3 | 0.000128 | 29700 | B9
5.11 | 0.000452 | 88400 | B3
0.235 | 2.95e-05 | 126000 | B4
1.47 | 0.000186 | 127000 | B5

biological target: T3, Recombinant Human VEGFR2/KDR Protein, …; experiment: ELISA, hVEGFR2-his coated, anti-human Fc-HRP; antibody made in 293T cells
Procedure: as §2
Same protocol of Example 9.
Target sequence in this assay (P35968 other isoform, or with tags, fused parts or gaps): as above

EC50 [µg/mL] | Binder
0.0221 | B7
0.0706 | B8
0.0171 | B10
0.0442 | B9

biological target: T3, Recombinant Human VEGFR2/KDR Protein, …; experiment: competition ELISA: hVEGFR2-his coated (1 ug/ml), antibody titrated, then 0.3 ug/ml hVEGF-A added and bound VEGF-A detected; blocked ligand hVEGF-A
Procedure: High-binding clear polystyrene 96 well plates were coated with 100 μl/well of 1 μg/ml hVEGFR2-his overnight at 4° C. After washing and blocking, serial diluted antibodies (from 10 μg/ml to 0.0006 μg/ml) were added and incubate for 1 hour at RT. 0.3 μg/ml hVEGF-A (Acrobiosystem, Cat #VE5-H4210) were added and incubated for 2 hour at RT. Then 100 μl/well of 0.25 μg/ml Biotinylated Rabbit Anti-human VEGF-A (Peprotech, Cat #400-P10Bt) was then added for detecting bound VEGF-A. Then 100 μl/well of a solution of HRP conjugated Neutravidin antibody (Pierce, Cat #31001) and TMB were added sequentially. Finally, reaction was terminated using 0.64M H₂SO₄ and plates were read at 450 nm.
Target sequence in this assay (P35968 other isoform, or with tags, fused parts or gaps): as above

IC50 [µg/mL] | Binder
0.0434 | B1
0.0629 | B2

Biological target: T1, Recombinant Rhesus macaque VEGFR2/KDR …
Experiment: ELISA, rhesus VEGFR2-his coated, anti-human Fc-HRP
Procedure: as §1, §2

EC50 [µg/mL] | Binder
0.0209 | B6

biological target: T2, human VEGFR2 on HUVEC cells; experiment: flow cytometry on HUVEC cells, percent shifted cells (Shift %), anti-human IgG-PE

EC50 [µg/mL] | Binder
0.0823 | B6
